The source of these data is patent US20070128190A1 (GLENMARK PHARMACEUTICALS S A, published 2007).

The term Ki denotes the dissociation constant of the complex between target and ligand, obtained from inhibition or displacement. A lower Ki goes with a stronger hold on the target. Broadly, the Kd is the constant that tells how readily two partners part at equilibrium. A lower Kd goes with tighter binding. For orientation: koff means a measure of how fast the partners let go of each other. Higher therefore signals fast dissociation. For orientation: kon means the second-order rate constant of association.

Assay [1] deals with T1, human platelet α2β1 integrin (immobilized on microtiter plates) (human, UniProt P17301 30-1181; P05556 21-798).
T1 construct: plates custom-coated with human platelet α2β1 by GTI Inc; also called immobilized α2β1 integrin; α2β1-coated plates
Kind of assay: competition with Eu-humanized TMC-2206 on α2β1-coated plates. The source says: The inhibition curves were fitted with the “one site competition” model using Prism software (GraphPad, Inc.) to obtain IC₅₀ values and to calculate the Kᵢ using the equation of Cheng and Prusoff (1973) and the respective values for KD from above.
The cloning of the human, rhesus macaque, rat, and mouse α2 I domains were described in Example 12. Cynomolgus and additional rhesus monkey α2 I domains were cloned from cDNA derived from total RNA extracted from skin tissue (MediCorp, Inc., Montreal, QC).

Assay [2] addresses T1, human platelet α2β1 integrin …. Kind of assay: equilibrium binding of Eu-labelled antibody to human platelet α2β1-coated plate, Scatchard. Here is the method:
Wells in a 96-well microtiter plate were coated with platelet α2β1-integrin (custom-coated with human platelet α2β1 by GTI Inc., WI) and then blocked with nonfat milk. […] After concentration in prewashed MicroSep concentrators [30-kDa cutoff; Pall Life Sciences at 9500 rpm (7000×g) in a JA-20 rotor (Beckman Instruments, Inc.] for 20 minutes at 4° C.), the antibody was adjusted to 4.0 mg/mL with PBS, 100 mM NaHCO₃, pH 9.3. The MAb/bicarbonate mixture (0.250 mL) was gently mixed into a vial containing 0.2 mg N¹-(p-isothiocyanatobenzyl)-diethylenetriamine-N¹,N²,N³,N³-tetraacetic acid chelated with Eu³⁺ (Eu-N1-ITC; Perkin Elmer Life Sciences) and incubated overnight at 4° C. without stirring. The labeled antibody mixture was applied to a PD-10 column (GE Biosciences, Piscataway, N.J.) pre-equilibrated with Running Buffer (50 mM Tris, pH 7.4 and 138 mM NaCl). Fractions (0.5 mL) were collected and assayed for total protein (Bradford reagent; Bio-Rad Laboratories, Hercules, Calif.) using a SpectraMax 384 absorbance plate reader and for europium after 1:10.000 dilution in DELFIA Enhancement Solution (Perkin-Elmer) by time-resolved fluorescence (TRF) using a Victor2 multi-label plate reader (Perkin Elmer). […]

For assay [3] the target is unchanged. The experiment in a line: competition with Eu-TMC-2206 on human platelet α2β1-coated plate. The method, then: Exemplary IgG1 antibodies have a hVH 14.0 γ heavy chain (SEQ ID NO:181) or a hVH12.0 γ1 heavy chain (SEQ ID NO:182) and a hVL10.0Q light chain (SEQ ID NO:178). Exemplary IgG4 antibodies have a hVH14.0 γ4 heavy chain (SEQ ID NO:174) or a hVH12.0 γ4 heavy chain (SEQ ID NO:176) and a hVL 10.0Q light chain (SEQ ID NO:178). Purified antibodies were tested in the competition assay to compare potency by Kᵢ values as well as in the cell adhesion to collagen assay, where potency is measured as EC₅₀ values.

For assay [4] the target is unchanged. The experiment in a line: competition with Eu-humanized TMC-2206 on human platelet α2β1-coated plate. Here is the method:
The MAb/bicarbonate mixture (0.250 mL) was gently mixed into a vial containing 0.2 mg N¹-(p-isothiocyanatobenzyl)-diethylenetriamine-N¹,N²,N³,N³-tetraacetic acid chelated with Eu³⁺ (Eu-N1-ITC; Perkin Elmer Life Sciences) and incubated overnight at 4° C. without stirring. The labeled antibody mixture was applied to a PD-10 column (GE Biosciences, Piscataway, N.J.) pre-equilibrated with Running Buffer (50 mM Tris, pH 7.4 and 138 mM NaCl). Fractions (0.5 mL) were collected and assayed for total protein (Bradford reagent; Bio-Rad Laboratories, Hercules, Calif.) using a SpectraMax 384 absorbance plate reader and for europium after 1:10.000 dilution in DELFIA Enhancement Solution (Perkin-Elmer) by time-resolved fluorescence (TRF) using a Victor2 multi-label plate reader (Perkin Elmer). The fractions that were positive for both protein and europium label were pooled, applied to a new PD-10 column, and samples collected and assayed for total protein and for europium content by TRF calibrated against a europium standard solution (Perkin-Elmer) to calculate the fluor : protein ratio. […] The plate was shaken (Titer Plate Shaker, speed setting of 5, 5 minutes at room temperature) and TRF intensities were read using the Victor2 multi-label plate reader. The KD values were calculated by Scatchard analyses.

In assay [5] the target is human α2β1 integrin on human cells (platelets, leukocytes, HT1080) (human, UniProt P17301 30-1181; P05556 21-798). The experiment in a line: cell-based or functional assay.
Assay [6] addresses T2, GST-human α2 I domain fusion protein (human, UniProt P17301 153-368).
T2 construct: the reverse primer ends at ...SIEGTV; also called GST-α2 I domain; hα2I; not shown: glutathione S-transferase tag encoded by vector pGEX-2TK
T2 sequence: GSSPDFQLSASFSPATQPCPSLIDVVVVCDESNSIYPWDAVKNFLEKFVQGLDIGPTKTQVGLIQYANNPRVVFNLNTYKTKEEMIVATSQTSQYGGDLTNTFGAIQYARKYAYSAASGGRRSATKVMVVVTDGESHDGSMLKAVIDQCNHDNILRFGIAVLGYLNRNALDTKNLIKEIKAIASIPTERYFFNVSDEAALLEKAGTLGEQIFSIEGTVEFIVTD
Kind of assay: SPR (Biacore 2000), antibody captured, GST-α2 I domain in solution. For orientation: SPR reads the build-up and loss of mass on a sensor chip optically.

For the next assay, the target named is T3, GST (UniProt P08515 1-218 = GST).
T3 construct: also called GST fusion protein (negative control)
Kind of assay: ELISA, GST on immobilized TMC-2206. Background: In an ELISA, binding on a coated surface is turned into a signal by an enzyme label.

B1: TMC-2206 (antibody, mouse IgG1, V domains shown)
VH: QVQLKESGPGLVAPSQSLSITCTVSGFSLTNYGIHWVRQPPGKGLEWLGVIWARGFTNYNSALMSRLIITKDNSQSQVFLKMNSLQPDDSATYFCARANDGVYYAMDYWGQGTSVTVSS
VL: QFVLTQSPAFLSASPGEKVTMTCSANSSVNYIHWYQQKSGTSPKKWIYDTSKLASGVPVRFSGSGSGTSYSLTISSMETEDAATYYCQQWTTNPLTFGAGTRVELK
notes: murine IgG1/κ secreted by hybridoma BHA2.1; labelled with Eu-N1-ITC where used as tracer; also called BHA2.1
On to B1, for which the Ki in assay [1] turned out to be 0.14 nM; in assay [3], 0.22 nM; in assay [4], 0.21 nM. In addition, the Kd in assay [2] came to 0.72 nM; in assay [6], 2.9 nM. Further, the “EC50 (nm), human platelets on human placenta Type I collagen (n = 1)” value in assay [5] is 8.44 nM. In assay [6], this molecule displayed a koff of 0.0011 s⁻¹. This molecule had a kon in assay [6] of 380000 M⁻¹ s⁻¹. For the same molecule, the binding result in the assay with GST was “no binding (tested: ~1 µM)”.

B2: Humanized TMC-2206 (hIgG4/κ VH12.0/VL10.0Q) (antibody)
heavy: not shown
light: DFVMTQSPAFLSVTPGEKVTITCSAQSSVNYIHWYQQKPDQAPKKLIYDTSKLASGVPSRFSGSGSGTDYTFTISSLEAEDAATYYCQQWTTNPLTFGQGTKVEIKRTVAAPSVFIFPPSDEQLKSGTASVVCLLNNFYPREAKVQWKVDNALQSGNSQESVTEQDSKDSTYSLSSTLTLSKADYEKHKVYACEVTHQGLSSPVTKSFNRGEC
notes: labelled with Eu or Alexa-488 in some assays
Consider B2, for which the Ki in assay [1] came to 0.34 nM; in assay [3] it was 0.27 nM; in assay [4] it was 0.41 nM. Also, the Kd in assay [2] is 1.29 nM; in assay [6] it was 2.3 nM. Moreover, the “EC50 (nm), human platelets on human placenta Type I collagen (n = 1)” value in assay [5] is 13.1 nM. This molecule also gave a koff in assay [6] of 0.00082 s⁻¹. In assay [6], this molecule returned an association rate constant (kon) of 350000 M⁻¹ s⁻¹.
